Source: patent US20150322137A1 (EVEC, published 2015)

Key:
Experiment in all cases: cell-based or functional assay
[1] = biological target: T1, F protein of human metapneumovirus strain JPS02-76 (type B1), on infectious virus (human metapneumovirus, strain JPS02-76 …, UniProt Q6WB98 19-539)
[2] = biological target: T2, F protein of human metapneumovirus strain JPS03-178 (type A2), on infectious virus (human metapneumovirus, strain JPS03-178 …)
[3] = biological target: T3, F protein of human metapneumovirus strain JPS05-21 (type B2), on infectious virus (human metapneumovirus, strain JPS05-21 …)
[4] = biological target: T4, F protein of human metapneumovirus strain JPS03-180 (type A1), on infectious virus (human metapneumovirus, strain JPS03-180 …)
[5] = biological target: T1, F protein of human metapneumovirus …; remark: listed apart in the source
[6] = biological target: T2, F protein of human metapneumovirus …; remark: listed apart in the source
[7] = biological target: T3, F protein of human metapneumovirus …; remark: listed apart in the source
[8] = biological target: T4, F protein of human metapneumovirus …; remark: listed apart in the source
[9] = biological target: T1, F protein of human metapneumovirus …; remark: listed apart in the source
[10] = biological target: T2, F protein of human metapneumovirus …; remark: listed apart in the source
[11] = biological target: T3, F protein of human metapneumovirus …; remark: listed apart in the source
[12] = biological target: T4, F protein of human metapneumovirus …; remark: listed apart in the source
[13] = biological target: T1, F protein of human metapneumovirus …; remark: listed apart in the source
[14] = biological target: T3, F protein of human metapneumovirus …; remark: listed apart in the source
[15] = biological target: T4, F protein of human metapneumovirus …; remark: listed apart in the source

| Binder | IC90, neutralizing activity (hMPV infection of LLC-MK2 cells; GraphPad Prism 6) [1] [mg/L] | IC90, neutralizing activity (hMPV infection of LLC-MK2 cells; GraphPad Prism 6) [2] [mg/L] | IC90, neutralizing activity (hMPV infection of LLC-MK2 cells; GraphPad Prism 6) [3] [mg/L] | IC90, neutralizing activity (hMPV infection of LLC-MK2 cells; GraphPad Prism 6) [4] [mg/L] | IC60, neutralizing activity (hMPV infection of LLC-MK2 cells; GraphPad Prism 6) [5] [mg/L] | IC60, neutralizing activity (hMPV infection of LLC-MK2 cells; GraphPad Prism 6) [6] [mg/L] | IC60, neutralizing activity (hMPV infection of LLC-MK2 cells; GraphPad Prism 6) [7] [mg/L] | IC60, neutralizing activity (hMPV infection of LLC-MK2 cells; GraphPad Prism 6) [8] [mg/L] | IC50, cell-to-cell spread inhibitory activity (LLC-MK2 cells stably expressing TMPRSS2) [9] [mg/L] | IC90, cell-to-cell spread inhibitory activity (LLC-MK2 cells stably expressing TMPRSS2) [9] [mg/L] | IC50, neutralizing activity (hMPV infection of LLC-MK2 cells; GraphPad Prism 6) [10] [mg/L] | IC50, neutralizing activity (hMPV infection of LLC-MK2 cells; GraphPad Prism 6) [11] [mg/L] | IC50, neutralizing activity (hMPV infection of LLC-MK2 cells; GraphPad Prism 6) [12] [mg/L] | IC50, neutralizing activity (hMPV infection of LLC-MK2 cells) [13] [mg/L] | IC50, neutralizing activity (hMPV infection of LLC-MK2 cells) [14] [mg/L] | IC50, neutralizing activity (hMPV infection of LLC-MK2 cells) [15] [mg/L] |
| --- | --- | --- | --- | --- | --- | --- | --- | --- | --- | --- | --- | --- | --- | --- | --- | --- |
| EV046136 (antibody, human IgG1, kappa, V domains shown) VH: QVQLVQSGAEMKKPGASVKVSCKASGYTFTDYFIHWVRQAPGQGLEWMGWVNPNSGATNYAQKFQGRVTMTGDTSLSAAYVDLSRLSSDDSAVYYCARDRGLGISSTRNDAFDIWGQGTTVTVSS VL: DIQLTQSPSSLSASVGDRVTITCQPSQGIRNFLNWYQQKPGKAPNLLIYDASNLETGVASRFSGSGSGTHFTLTISSLQPEDIATYFCQQYHSLPLTFGGGTKVEIKR | 0.895 | 0.605 | 1.78 | 0.605 | 0.419 | 0.358 | 0.67 | 0.358 | 0.0522 | 0.212 | 0.318 | 0.537 | 0.318 | 0.31 | 0.46 | 0.29 |
| EV046130 (antibody, human IgG1, lambda, V domains shown) VH: QVQLVESGGGVAQPGRSLRLSCAASGFTLSNYGMHWVRQAPGKGLEWVAVIWYDGRNKYYADSVKGRFTISRDDFKNTLDLQMNSLRAEDTAVYYCARDQHAGITMIEDWGQGTLVTVSS VL: QSALTQPPSASGSPGQSVTISCTGTSSDVGYFKYVSWYQQHPGKAPKLLIYEVSKRPSGVPDRFSGSRSGNTASLTVSGLQADDEADYYCGSYAGNNNIIFGGGTKLTVLG | 0.714 | 2.3 | 0.358 | 0.486 | 0.354 | 2.01 | 0.132 | 0.254 | 0.0349 | 0.147 | 1.95 | 0.105 | 0.22 | 0.23 | 0.089 | 0.21 |
| EV046124 (antibody, human IgG1, lambda, V domains shown) VH: QVQLVQSGTELKKPGASVKVSCKASGYTFTDYSMHWLRQAPGESLEWMGWVNGGPLDTKYSPTFQDRVSFSRDVFATTAYMDLSSLGPEDTAVYYCARGWGITAYRGDAFDLWGQGTMVIVSS VL: SFVLTQPPSVSVAPGKSARITCGASNIESKSVHWYQQKPGQAPVVVVYDDDDRPSGIPERFSGSNSGNTATLIINRVEVGDEADYYCQVWDSTSDMYVFGAGTKVTVLG | 0.952 | 0.188 | 0.677 | 0.365 | 0.423 | 0.0539 | 0.305 | 0.102 | 0.0482 | 0.26 | 0.0407 | 0.255 | 0.0767 | 0.29 | 0.24 | 0.07 |
| EV046115b (antibody, human IgG1, lambda, V domains shown) VH: QVQLVQSGAEVKKPGASVKVSCKASGYTFSVYGISWVRQAPGHGLEWMGWISAYNGDRGYAQKVQGRITMTTDTSASTAYMELRSLTSDDTAVYYCATTSSGVPGIYWGQGSLVTVSS VL: not shown | 2.3 | 5.75 | 0.345 | 1.03 | 0.376 | 2.71 | 0.133 | 0.4 | 0.135 | 0.617 | 2.28 | 0.108 | 0.322 | 0.27 | 0.099 | 0.29 |
| EV046135 (antibody, human IgG1, lambda, V domains shown) VH: QEQLVESGGDLVKPGGSLRITCAASGFTLSGYALVWVRQAPGRGLEWIADITASSTYINYAASVKGRFTISRDNAQSSLFLQMSSLRADDTGVYFCARLPHLPGFFDLWGRGTLVSVSS VL: QSVLTQPPSVSGAPGQRVTISCTGNSSNIGAGYDVNWYQHLPGTAPKLLISVNTNRPSGVPDRFSGSMSGTSASLAITGLQAEDEADYYCQSYDRRLSGYVFGTGTKVTVLG | 1.44 | 0.277 | 0.748 | 1.24 | 0.571 | 0.0471 | 0.268 | 0.44 | 0.0308 | 0.231 | 0.0316 | 0.213 | 0.348 | 0.37 | 0.22 | 0.35 |
